Assay results: patent publication US20210187120A1 (WISCONSIN ALUMNI RESEARCH FOUNDATION, published 2021)
No end group written: not given here.

What was measured:
[1] = biological target: T1, PD-L1 on 786-O cells (PD-L1 overexpressing human renal cell carcinoma line) and MCF-7 cells (low PD-L1) (human, UniProt Q9NZQ7 19-290); assay: fluorescence microscopy (rhodamine), cells treated for 1 h
T1 construct: whole, on cells; also called PD-L1 molecules on tumor cells

[2] = biological target: T2, PD-L1 proteins (R&D systems) (UniProt Q9NZQ7 19-239, limits assumed); assay: fluorescence polarization, fβH2_mt titrated with PD-L1 in PBS; the concentration varied is that of PD-L1
T2 construct: Commercial recombinant PD-L1; It was immobilized on a CM5 chip for SPR and used in solution for the FP assay; also called immobilized PD-L1 proteins
T2 sequence (Q9NZQ7 19-239 limits assumed): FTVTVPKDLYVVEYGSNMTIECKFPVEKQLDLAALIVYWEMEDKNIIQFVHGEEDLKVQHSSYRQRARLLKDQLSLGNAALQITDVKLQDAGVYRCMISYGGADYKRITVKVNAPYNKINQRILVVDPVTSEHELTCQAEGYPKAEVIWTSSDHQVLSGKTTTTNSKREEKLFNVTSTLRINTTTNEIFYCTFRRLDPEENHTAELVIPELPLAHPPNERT
Experimental: Fluorescence polarization (FP) assay. FP assay in PBS was used the PD-L1 binding and competition assays (λex=480 nm; λem=535 nm). Fluorescence anisotropy measurements were performed at room temperature, in a 384-well plate, and using an Infinite® M1000 Pro microplate reader (Tecan). A fβH2_mt/PD-L1 complex was used for the FP competition assay after 30 min incubation time and titrated with the competitors.

[3] = biological target: T2, PD-L1 proteins (R&D systems); assay: SPR, PD-L1 immobilized on CM5 chip
Experimental: (§1) Surface plasma resonance (SPR). SPR analysis was done using a BIAcore™ X (Pharmacia Biosensor AB, Uppsala, Sweden). In short, PD-L1 proteins (R&D systems) were immobilized onto carboxylated dextran-coated gold film surface of sensor chip (CM5 sensor chip, GE Healthcare) through EDC/NHS chemistry. 30 μL of sample solution was injected at a flow rate of […]. Sample solution was allowed to flow into both channels (channel 1 for reference, channel 2 with PD-L1), and the final SPR sensorgrams were obtained by subtracting the […].

[4] = biological target: T2, PD-L1 proteins (R&D systems); assay: SPR (BIAcore X), PD-L1 immobilized on CM5 chip, four concentrations (45-270 nM by the legend)
Experimental: as §1

[5] = biological target: T1, PD-L1 on 786-O cells (PD-L1 …); assay: cell-based or functional assay
[6] = biological target: T2, PD-L1 proteins (R&D systems); assay: SPR (BIAcore X), PD-L1 immobilized on CM5 chip, four concentrations (17-42 µM by the legend)
Experimental: as §1

T1 sequence (Q9NZQ7 19-290): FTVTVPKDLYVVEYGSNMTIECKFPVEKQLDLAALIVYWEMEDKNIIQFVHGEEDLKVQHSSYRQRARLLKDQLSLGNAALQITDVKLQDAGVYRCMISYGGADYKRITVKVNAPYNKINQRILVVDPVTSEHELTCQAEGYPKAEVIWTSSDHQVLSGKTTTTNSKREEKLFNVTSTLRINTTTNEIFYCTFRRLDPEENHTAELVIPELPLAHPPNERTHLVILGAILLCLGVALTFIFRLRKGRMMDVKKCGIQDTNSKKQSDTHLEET

B1: pL1TZ (Trp-Zip βH2 mutant peptide) (peptide)
peptide: HKVWHWESPSGQWDTWAA-NH2
notes: Free tryptophan-zipper peptide; also called pLiTZ
B1: binds [1].

B2: fluorescein-conjugated βH2_mt (fβH2_mt) peptide (peptide)
peptide: HVVWHRESPSGQTDTKAA-NH2
modifications: also: fluorescein-conjugated, position not given here
notes: Tracer of the fluorescence polarization assay
For B2, the “EC50 (read off the curve)” value [2] was ~300 nM.

B3: G7-βH2_mt (βH2_mt peptides conjugated to 90% acetylated G7 PAMAM dendrimer) (other)
peptide: HVVWHRESPSGQTDTKAA-NH2
modifications: not fully specified
notes: also called G7-βH2_mt conjugates; DPC
With B3 the “fold decrease of the dissociation rate constant (kd) compared to the free peptide” value [3] was ~180 times, the Kd [4] was 2.75 nM and the koff [4] was 0.000693 s⁻¹. For the same binder, the kon [4] was 252000 M⁻¹ s⁻¹ and the “IL-2 secretion from Jurkat T cells co-cultured with 786-O cells, compared with the non-treated cancer cells” value [5] was 1.52 fold.

B4: free βH2_mt peptide (peptide)
peptide: HVVWHRESPSGQTDTKAA-NH2
notes: also called H2_mt peptides; free peptides
For B4, the Kd [6] was 119000 nM and the koff [6] was 0.127 s⁻¹.
